Assay results published in patent US20130195871A1 (AbbVie / Abbott, published 2013).

Tests used:
[1] = molecular target: T1, Recombinant Human EGFR ECD (human, UniProt P00533 25-645); assay: SPR (Biacore), C-terminal VD;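 note: surface plasmon resonance with DVD-Ig proteins captured on an anti-IgG chip and recombinant antigen flowed over in HBS-EP buffer, Langmuir global fit, KD taken as koff/kon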
T1 construct: extracellular domain; bought reagent

[2] = molecular target: T2, Recombinant Human IGF1R (human, UniProt P08069 31-932); assay: SPR (Biacore), N-terminal VD;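 note: capture of antibodies or DVD-Ig proteins on an anti-mouse IgG chip surface, recombinant antigen injected at 10–200 nM in HBS-EP running buffer at 25 °C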
T2 construct: bought reagent

[3] = molecular target: T1, Recombinant Human EGFR ECD; assay: SPR (Biacore), N-terminal VD;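 note: capture of antibodies or DVD-Ig proteins on an anti-mouse IgG chip surface, recombinant antigen injected at 10–200 nM in HBS-EP running buffer at 25 °C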
[4] = molecular target: T3, Recombinant Human ErbB3/FC Chimera-His tag (human, UniProt P21860 20-643); assay: SPR (Biacore)
T3 construct: bought reagent
Protocol: (§1) The BIACORE assay (Biacore, Inc, Piscataway, N.J.) determined the affinity of antibodies or DVD-Ig proteins with kinetic measurements of on-rate and off-rate constants. Binding of antibodies or DVD-Ig proteins to a target antigen (for example, a purified recombinant target antigen) was determined by surface plasmon resonance-based measurements with a Biacore® 1000 or 3000 instrument (Biacore AB, Uppsala. Sweden) using running HBS-EP (10 mM HEPES [pH 7.4], 150 mM NaCl, 3 mM EDTA, and 0.005% surfactant P20) at 25° C. […] For example, approximately 5000 RU of goat anti-mouse IgG, (Fcγ), fragment specific polyclonal antibody (Pierce Biotechnology Inc, Rockford, Ill.) diluted in 10 mM sodium acetate (pH 4.5) was directly immobilized across a CM5 research grade biosensor chip using a standard amine coupling kit according to manufacturer's instructions and procedures at 25 μg/ml. Unreacted moieties on the biosensor surface were blocked with ethanolamine. Modified carboxymethyl dextran surface in flowcell 2 and 4 was used as a reaction surface. Unmodified carboxymethyl dextran without goat anti-mouse IgG in flow cell 1 and 3 was used as the reference surface. For kinetic analysis, rate equations derived from the 1:1 Langmuir binding model were fitted simultaneously to association and dissociation phases of all eight injections (using global fit analysis) with the use of Biaevaluation 4.0.1 software. Purified antibodies or DVD-Ig proteins were diluted in HEPES-buffered saline for capture across goat anti-mouse IgG specific reaction surfaces. Antibodies or DVD-Ig proteins to be captured as a ligand (25 μg/ml) were injected over reaction matrices at a flow rate of 5 μl/minute. The association and dissociation rate constants, kₒₙ (M⁻¹s⁻¹) and koff (s⁻¹) were determined under a continuous flow rate of 25 μl/minute. Rate constants were derived by making kinetic binding measurements at different antigen concentrations ranging from 10-200 nM. The equilibrium dissociation constant (M) of the reaction between antibodies or DVD-Ig proteins and the target antigen was then calculated from the kinetic rate constants by the following formula: KD=koff/kₒₙ. Binding was recorded as a function of time and kinetic rate constants were calculated.

[5] = molecular target: T2, Recombinant Human IGF1R; assay: SPR (Biacore), C-terminal VD;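 note: surface plasmon resonance with DVD-Ig proteins captured on an anti-IgG chip and recombinant antigen flowed over in HBS-EP buffer, Langmuir global fit, KD taken as koff/kon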
[6] = molecular target: T4, Recombinant Human MSP Receptor ECD-His tag (human, UniProt Q04912 25-957); assay: SPR (Biacore), N-terminal VD;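 note: capture of antibodies or DVD-Ig proteins on an anti-mouse IgG chip surface, recombinant antigen injected at 10–200 nM in HBS-EP running buffer at 25 °C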
T4 construct: extracellular domain; bought reagent; also called RON

[7] = molecular target: T2, Recombinant Human IGF1R; assay: SPR (Biacore)
Protocol: as §1

| Kd [4] [nM] | koff [4] [s⁻¹] | kon [4] [M⁻¹ s⁻¹] | Kd [7] [nM] | koff [7] [s⁻¹] | kon [7] [M⁻¹ s⁻¹] | Binder | further results |
| --- | --- | --- | --- | --- | --- | --- | --- |
| – | – | – | – | – | – | DVD2284 (bispecific antibody) VH: EVQLVQSGAEVKKPGSSVKVSCKASGGTFSSYAISWVRQAPGQGLEWMGGIIPIFGTANYAQKFQGRVTITADKSTSTAYMELSSLRSEDTAVYYCARAPLRFLEWSTQDHYYYYYMDVWGKGTTVTVSSASTKGPQVQLQESGPGLVKPSQTLSLTCTVSGYSISSDFAWNWIRQPPGKGLEWMGYISYSGNTRYQPSLKSRITISRDTSKNQFFLKLNSVTAADTATYYCVTAGRGFPYWGQGTLVTVSS VL: SSELTQDPAVSVALGQTVRITCQGDSLRSYYATWYQQKPGQAPILVIYGENKRPSGIPDRFSGSSSGNTASLTITGAQAEDEADYYCKSRDGSGQHLVFGGGTKLTVLGQPKAAPDIQMTQSPSSMSVSVGDRVTITCHSSQDINSNIGWLQQKPGKSFKGLIYHGTNLDDGVPSRFSGSGSGTDYTLTISSLQPEDFATYYCVQYAQFPWTFGGGTKLEIK | Kd [1]: 6.1 nM; koff [1]: 0.00016 s⁻¹; kon [1]: 26000 M⁻¹ s⁻¹; Kd [2]: 7.4 nM; koff [2]: 0.00019 s⁻¹; kon [2]: 26000 M⁻¹ s⁻¹ |
| – | – | – | – | – | – | DVD2348 (bispecific antibody) VH: QVQLQESGPGLVKPSQTLSLTCTVSGYSISSDFAWNWIRQPPGKGLEWMGYISYSGNTRYQPSLKSRITISRDTSKNQFFLKLNSVTAADTATYYCVTAGRGFPYWGQGTLVTVSSASTKGPEVQLVESGGGLVQPGGSLRLSCAASGFSLTNYGVHWVRQAPGKGLEWLGVGWSGGNTDYNTPFTSRLTINKDNSKNTVYLQMNSLRAEDTAVYYCARALTWYDYEFAYWGQGTLVTVSS VL: DIQMTQSPSSMSVSVGDRVTITCHSSQDINSNIGWLQQKPGKSFKGLIYHGTNLDDGVPSRFSGSGSGTDYTLTISSLQPEDFATYYCVQYAQFPWTFGGGTKLEIKRTVAAPDILLTQSPGTLSLSPGERATLSCRASQSIYTNIHWYQQKPGQAPRLLIKYASESISGIPDRFSGSGSGTDFTLTISRLEPEDFAVYYCQQNLNWPTTFGQGTKLEIK | Kd [3]: 8.5 nM; koff [3]: 0.00024 s⁻¹; kon [3]: 28000 M⁻¹ s⁻¹ |
| 5.6 | 0.00022 | 39000 | – | – | – | DVD2249 (bispecific antibody, DVD-Ig, outer AB116 / inner AB062) VH: EVQLLESGGGLVQPGGSLRLSCAASGFTFSHYVMAWVRQAPGKGLEWVSSISSSGGWTLYADSVKGRFTISRDNSKNTLYLQMNSLRAEDTAVYYCTRGLKMATIFDYWGQGTLVTVSSASTKGPSVFPLAPQVQLQQWGAGLLKPSETLSLTCAVYGGSFSGYYWSWIRQPPGKGLEWIGEINHSGSTNYNPSLKSRVTISVETSKNQFSLKLSSVTAADTAVYYCARDKWTWYFDLWGRGTLVTVSS VL: QSALTQPASVSGSPGQSITISCTGTSSDVGSYNVVSWYQQHPGKAPKLIIYEVSQRPSGVSNRFSGSKSGNTASLTISGLQTEDEADYYCCSYAGSSIFVIFGGGTKVTVLGTVAAPDIEMTQSPDSLAVSLGERATINCRSSQSVLYSSSNRNYLAWYQQNPGQPPKLLIYWASTRESGVPDRFSGSGSGTDFTLTISSLQAEDVAVYYCQQYYSTPRTFGQGTKVEIK | – |
| – | – | – | – | – | – | DVD2340 (bispecific antibody, DVD-Ig, outer AB034 / inner AB011) VH: QVQLQESGPGLVKPSEILSLTCTVSGGSISSHYWSWVRQPPGKGLEWIGYIYYSGSTNYNPSLKSRVTISVDTSKNQFSLNLSSVTAADTAVYYCARIPNYYDRSGYYPGYWYFDLWGRGTLVTVSSASTKGPEVQLLESGGGLVQPGGSLRLSCTASGFTFSSYAMNWVRQAPGKGLEWVSAISGSGGTTFYADSVKGRFTISRDNSRTTLYLQMNSLRAEDTAVYYCAKDLGWSDSYYYYYGMDVWGQGTTVTVSS VL: QAVLTQPSSLSAPPGASASLTCTLRSGFNVDSYRISWYQQKPGSPPQYLLRYKSDSDKQQGSGVPSRFSGSKDASANAGILLISGLQSEDEADYYCMIWHSSAWVFGGGTKLTVLRQPKAAPDIQMTQFPSSLSASVGDRVTITCRASQGIRNDLGWYQQKPGKAPKRLIYAASRLHRGVPSRFSGSGSGTEFTLTISSLQPEDFATYYCLQHNSYPCSFGQGTKLEIK | binding result [5]: no binding (tested: 10-200 nM); Kd [6]: 23 nM |
| – | – | – | – | – | – | DVD2268 (bispecific antibody) VH: EVQLVESGGGLVQPGGSLRLSCAASGFTFTDYTMDWVRQAPGKGLEWVADVNPNSGGSIYNQRFKGRFTLSVDRSKNTLYLQMNSLRAEDTAVYYCARNLGPSFYFDYWGQGTLVTVSSASTKGPQVQLQESGPGLVKPSETLSLTCTVSGGSVSSGDYYWTWIRQSPGKGLEWIGHIYYSGNTNYNPSLKSRLTISIDTSKTQFSLKLSSVTAADTAIYYCVRDRVTGAFDIWGQGTMVTVSS VL: DIQMTQSPSSLSASVGDRVTITCKASQDVSIGVAWYQQKPGKAPKLLIYSASYRYTGVPSRFSGSGSGTDFTLTISSLQPEDFATYYCQQYYIYPYTFGQGTKVEIKRTVAAPDIQMTQSPSSLSASVGDRVTITCQASQDISNYLNWYQQKPGKAPKLLIYDASNLETGVPSRFSGSGSGTDFTFTISSLQPEDIATYFCQHFDHLPLAFGGGTKVEIK | Kd [1]: 18 nM; koff [1]: 0.00035 s⁻¹; kon [1]: 19000 M⁻¹ s⁻¹ |
| 5.9 | 0.0003 | 51000 | – | – | – | DVD2238 (bispecific antibody, DVD-Ig, outer AB062 / inner AB063) VH: QVQLQQWGAGLLKPSETLSLTCAVYGGSFSGYYWSWIRQPPGKGLEWIGEINHSGSTNYNPSLKSRVTISVETSKNQFSLKLSSVTAADTAVYYCARDKWTWYFDLWGRGTLVTVSSASTKGPEVQLVESGGGLVQPGGSLRLSCAASGFTFSIYSMNWVRQAPGKGLEWVSYISSSSSTIYYADSVKGRFTISRDNAKNSLYLQMNSLRDEDTAVYYCARDRGDFDAFDIWGQGTMVTVSS VL: DIEMTQSPDSLAVSLGERATINCRSSQSVLYSSSNRNYLAWYQQNPGQPPKLLIYWASTRESGVPDRFSGSGSGTDFTLTISSLQAEDVAVYYCQQYYSTPRTFGQGTKVEIKRTVAAPDIQMTQSPSSLSASVGDRVTITCQASQDITNYLNWYQQKPGKAPKLLIYDASNLETGVPSRFSGSGSGTDFTFTISSLQPEDIATYNCQQCENFPITFGQGTRLEIK | – |
| 7.6 | 0.00051 | 67000 | – | – | – | DVD2242 (bispecific antibody, DVD-Ig, outer AB062 / inner AB063) VH: QVQLQQWGAGLLKPSETLSLTCAVYGGSFSGYYWSWIRQPPGKGLEWIGEINHSGSTNYNPSLKSRVTISVETSKNQFSLKLSSVTAADTAVYYCARDKWTWYFDLWGRGTLVTVSSASTKGPSVFPLAPEVQLVESGGGLVQPGGSLRLSCAASGFTFSIYSMNWVRQAPGKGLEWVSYISSSSSTIYYADSVKGRFTISRDNAKNSLYLQMNSLRDEDTAVYYCARDRGDFDAFDIWGQGTMVTVSS VL: DIEMTQSPDSLAVSLGERATINCRSSQSVLYSSSNRNYLAWYQQNPGQPPKLLIYWASTRESGVPDRFSGSGSGTDFTLTISSLQAEDVAVYYCQQYYSTPRTFGQGTKVEIKRTVAAPDIQMTQSPSSLSASVGDRVTITCQASQDITNYLNWYQQKPGKAPKLLIYDASNLETGVPSRFSGSGSGTDFTFTISSLQPEDIATYNCQQCENFPITFGQGTRLEIK | – |
| – | – | – | 5.5 | 0.00014 | 26000 | DVD2214 (bispecific antibody, DVD-Ig, outer AB075 / inner AB011) VH: EVQLVQSGAEVKKPGSSVKVSCKASGGTFSSYAISWVRQAPGQGLEWMGGIIPIFGTANYAQKFQGRVTITADKSTSTAYMELSSLRSEDTAVYYCARAPLRFLEWSTQDHYYYYYMDVWGKGTTVTVSSASTKGPEVQLLESGGGLVQPGGSLRLSCTASGFTFSSYAMNWVRQAPGKGLEWVSAISGSGGTTFYADSVKGRFTISRDNSRTTLYLQMNSLRAEDTAVYYCAKDLGWSDSYYYYYGMDVWGQGTTVTVSS VL: SSELTQDPAVSVALGQTVRITCQGDSLRSYYATWYQQKPGQAPILVIYGENKRPSGIPDRFSGSSSGNTASLTITGAQAEDEADYYCKSRDGSGQHLVFGGGTKLTVLGQPKAAPDIQMTQFPSSLSASVGDRVTITCRASQGIRNDLGWYQQKPGKAPKRLIYAASRLHRGVPSRFSGSGSGTEFTLTISSLQPEDFATYYCLQHNSYPCSFGQGTKLEIK | – |
| – | – | – | 5.3 | 0.00013 | 25000 | DVD2218 (bispecific antibody, DVD-Ig, outer AB075 / inner AB011) VH: EVQLVQSGAEVKKPGSSVKVSCKASGGTFSSYAISWVRQAPGQGLEWMGGIIPIFGTANYAQKFQGRVTITADKSTSTAYMELSSLRSEDTAVYYCARAPLRFLEWSTQDHYYYYYMDVWGKGTTVTVSSASTKGPSVFPLAPEVQLLESGGGLVQPGGSLRLSCTASGFTFSSYAMNWVRQAPGKGLEWVSAISGSGGTTFYADSVKGRFTISRDNSRTTLYLQMNSLRAEDTAVYYCAKDLGWSDSYYYYYGMDVWGQGTTVTVSS VL: SSELTQDPAVSVALGQTVRITCQGDSLRSYYATWYQQKPGQAPILVIYGENKRPSGIPDRFSGSSSGNTASLTITGAQAEDEADYYCKSRDGSGQHLVFGGGTKLTVLGQPKAAPDIQMTQFPSSLSASVGDRVTITCRASQGIRNDLGWYQQKPGKAPKRLIYAASRLHRGVPSRFSGSGSGTEFTLTISSLQPEDFATYYCLQHNSYPCSFGQGTKLEIK | – |
| – | – | – | 6.6 | 0.00012 | 19000 | DVD2216 (bispecific antibody, DVD-Ig, outer AB075 / inner AB011) VH: EVQLVQSGAEVKKPGSSVKVSCKASGGTFSSYAISWVRQAPGQGLEWMGGIIPIFGTANYAQKFQGRVTITADKSTSTAYMELSSLRSEDTAVYYCARAPLRFLEWSTQDHYYYYYMDVWGKGTTVTVSSASTKGPEVQLLESGGGLVQPGGSLRLSCTASGFTFSSYAMNWVRQAPGKGLEWVSAISGSGGTTFYADSVKGRFTISRDNSRTTLYLQMNSLRAEDTAVYYCAKDLGWSDSYYYYYGMDVWGQGTTVTVSS VL: SSELTQDPAVSVALGQTVRITCQGDSLRSYYATWYQQKPGQAPILVIYGENKRPSGIPDRFSGSSSGNTASLTITGAQAEDEADYYCKSRDGSGQHLVFGGGTKLTVLGQPKAAPSVTLFPPDIQMTQFPSSLSASVGDRVTITCRASQGIRNDLGWYQQKPGKAPKRLIYAASRLHRGVPSRFSGSGSGTEFTLTISSLQPEDFATYYCLQHNSYPCSFGQGTKLEIK | – |
